# Earlier results in patent publication US5770693A, “Calpain-inhibiting peptide analogs of the kininogen heavy chain” (Temple University-Of The Commonwealth System of Higher …, priority 1995, dated 1998).
# Molecular target: T1, papain (Carica papaya, UniProt P00784)
# T1 sequence (P00784 134-345): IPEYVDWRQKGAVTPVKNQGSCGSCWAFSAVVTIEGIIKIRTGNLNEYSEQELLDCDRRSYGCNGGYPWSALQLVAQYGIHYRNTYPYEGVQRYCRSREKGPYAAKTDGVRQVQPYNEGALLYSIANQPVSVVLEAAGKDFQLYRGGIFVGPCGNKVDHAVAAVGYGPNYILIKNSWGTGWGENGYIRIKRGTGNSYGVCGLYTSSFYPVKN
substance,measurement,value
Gln-Val-Val-Ala-Gly (QVVAG; printed: Gln-Val-Val-Ala-Gly) [pentapeptide contained in kininogen heavy chain domains D2 and D3],activity in inhibiting papain (in words),weak activity
